Assay results reported in US20230364014A1, “SELF-ASSEMBLED GELS FOR CONTROLLED DELIVERY OF BIOLOGICS AND METHODS OF MAKING THEREOF” (Alivio Therapeutics, Inc., priority 2018, published 2023).

Assays:
[1] = Time-dependent loading of antibody into ascorbyl palmitate microfibers (HPLC); format: physicochemical
Procedure: The efficiency of antibody (i.e., IFX or ADA) loading into ascorbyl palmitate microfibers was found be time dependent. […] (and following 3 washes with PBS by centrifugation at 5000 rpm for 10 mins at 4° C.). However, by extending the loading/incubation time to 20 hours (2 hours at 22° C., 18 hours at 4° C.), the loading increased to 14% (wt/wt %).

TNF-α = molecular target: T1, TNF-α (Homo sapiens, UniProt P01375); test: TNF-α activity assay with fibroblast L929 cells (L929 viability assay); format: cell-based; details: 1 ng/mL TNF-α in 2% serum, compared to IFX and ADA controls, FIG. 2
T1 construct: host or cells: added to murine fibroblast L929 cells
T1 sequence (P01375 77-233 limits assumed): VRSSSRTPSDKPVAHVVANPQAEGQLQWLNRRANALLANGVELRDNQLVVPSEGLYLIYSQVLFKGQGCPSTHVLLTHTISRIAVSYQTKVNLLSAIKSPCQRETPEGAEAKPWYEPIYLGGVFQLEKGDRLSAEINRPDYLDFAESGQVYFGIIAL
Procedure: Activity was measured using the TNF-α activity assay with fibroblast L929 cells (Gibco cytotoxicity assay for recombinant proteins).

[2] = pKa / isoelectric point and pH-dependent loading into AP microfiber suspensions; format: physicochemical; details: FIG. 4
Source text: Agent loading level can also be pH and/or charge-dependent and loading of the agent(s) may be controlled and/or optimized based using the pKa and isoelectric (pI) point of the agent. […] Accordingly, agent loading and encapsulation efficiency may be optimized/maximized by loading gel suspensions at a pH above the pKa of the gelator(s) and a pH which is below the isoelectric (pI) point of the agent(s) which are being loaded onto the gel.

[3] = Encapsulation efficiency in self-assembled AP microfibers versus non-assembled AP powder suspension (Coomassie Assay); format: physicochemical; details: 10 mg/mL AP mixed with equal volume of 2 mg/mL mAb in PBS, 22° C. for 2 hours, FIG. 5
Procedure: Ascorbyl palmitate (AP) microfiber suspensions were prepared using the self-assembly process described in Example 1 or, alternatively, using a non-assembled AP particulate used as-is from the manufacturer (USP grade ascorbyl palmitate, Sigma-Aldrich). […] After loading/incubation at 22° C. for 2 hours, the suspensions were centrifuged at 20,000×g for 10 minutes at 4° C. The supernatant was then removed and tested for soluble protein via the Coomassie Assay to determine the encapsulation efficiency.

[4] = cited from earlier work

infliximab [IFX]
loading ([1]; after 10 minutes of loading/incubation at 22° C., following 3 washes with PBS): 7 % (wt/wt %) | theoretical maximum loading ([1]; calculated from amounts of IFX and AP combined during loading): approximately 16.7 % (wt/wt %) | loading ([1]; loading/incubation time 20 hours (2 hours at 22° C., 18 hours at 4° C.)): 14 % (wt/wt %)

adalimumab
activity of mAb released from gels against TNF-α (TNF-α): active against TNF-α | influence of pH on loading and encapsulation efficiency [2]: highest loading and encapsulation efficiencies are observed at a pH above the pKa of AP but below the pI | encapsulation of antibody, self-assembled AP microfiber suspension relative to non-self-assembled AP powder suspension [3]: greater encapsulation

CCCCCCCCCCCCCCCC(=O)OC[C@H](O)[C@H]1OC(=O)C(O)=C1O [AP, ascorbyl palmitate]
pKa [4]: 4.4
